From IntAct's records for PubMed 16390871

B1: Hsp90 co-chaperone Cdc37 (Schizosaccharomyces pombe (strain ATCC 38366 / 972)), O94740 (parent)
chain: MAIDYSKWDKLELSDDSDIEVHPNVDKKSFIRWRQRDIHEKRAVRKQKMEDIKGAMAMNRRLLSRISEMETVLEKESPSDPYVLLGSFLEAKKSEDMDSAIPGGMSYHHMLMSLLKVIKDAEDTTEEKSMDDSDKCLRRLKSHKERLLKLLEDAQKEYDTLEAESKNYITSEDLHLGFDSTYVQKKEPEKPKKTKTKKETIQVIESLNNPTPPTDFPGAKEQASTGNAPKNPVNENESEDEEGLSLSEDGKKFANIDFGDYSSSEEFLKEHLNILADEEESDAILLEAFNAELEGKPSLAKQYVHQALLISYCRQLGPNGLSIFFQKIKDPNHQSQRLFLEDVHNTYVRIHERSAAISKEQAESGEGVEQIQLCAVDPNTKLSITIPEAGSTDPETQKARAAFESFPPNLQKALMTNDLDKINVVLGKMAVENAEEVVEKLSSTGMLSIEEGIIDTTKGETIPQLS

Variants of: B1
Settings: with cdk1_schpo cdc2, P04551
cdk1_schpo cdc2, P04551, sequence (P04551 whole entry): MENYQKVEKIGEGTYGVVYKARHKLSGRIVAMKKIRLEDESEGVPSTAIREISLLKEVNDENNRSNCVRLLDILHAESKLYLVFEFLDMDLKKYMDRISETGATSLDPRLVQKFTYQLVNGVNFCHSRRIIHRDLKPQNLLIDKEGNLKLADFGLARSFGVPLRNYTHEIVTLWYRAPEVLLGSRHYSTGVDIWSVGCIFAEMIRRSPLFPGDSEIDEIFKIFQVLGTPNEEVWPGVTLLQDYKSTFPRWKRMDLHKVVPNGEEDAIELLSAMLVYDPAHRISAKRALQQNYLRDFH

Row | Variant | effect of a mutation on the interaction
1 | E287D | decreasing interaction
2 | L285P | decreasing interaction
